Results taken from publication PMC12203670, “MTX2 facilitates PKM2 tetramerization to promote cardiac glucose metabolism and protects the heart against ischemia/reperfusion injury” (Theranostics, 2025).
“And” between values parts separate entries of the source, which are not always exact repeats. Equal values may be shown once.

Molecular target: the molecule itself
Experiment: cross-linking; glutaraldehyde cross-linking, Western blot of PKM2 oligomers; Mtx2 KO H9C2 cells overexpressing MTX2 mutants, H/R

B1: PKM2 in Mtx2 KO H9C2 cells (cross-linking) (enzyme)
chain: not shown
notes: pyruvate kinase PKM, splice isoform M2; also called dimeric PKM2; source: Mtx2 KO H9C2 cells overexpressing MTX2 mutants, H/R
stoichiometry N: 2 and 4
